The values that follow come from patent publication US20180142007A1 (AXON NEUROSCIENCE, published 2018).

Numbering of substitutions follows the chain as printed.

The labels stand for the following.
B1: AX004-IgG1, humanized DC8E8 RHD/RKA, IgG1 isotype (antibody)
heavy: not shown
light: DIVMTQSPLSLPVTPGEPASISCKSSQSLLNSRTRKNYLAWYLQKPGQSPQLLIYWASTRESGVPDRFTGSGSGTDFTLKISRVEAEDVGVYYCKQSFYLRTFGQGTKVEIKRTVAAPSVFIFPPSDEQLKSGTASVVCLLNNFYPREAKVQWKVDNALQSGNSQESVTEQDSKDSTYSLSSTLTLSKADYEKHKVYACEVTHQGLSSPVTKSFNRGEC
notes: Expressed in Expi293, purified on Protein A and by size exclusion
B2: AX016-IgG1, humanized DC8E8 RHD/RKB, IgG1 isotype (antibody)
heavy: not shown
light: B1 light with T5S
notes: as for B1
B3: AX014-IgG4, humanized DC8E8 RHB/RKB, IgG4 isotype (antibody)
heavy: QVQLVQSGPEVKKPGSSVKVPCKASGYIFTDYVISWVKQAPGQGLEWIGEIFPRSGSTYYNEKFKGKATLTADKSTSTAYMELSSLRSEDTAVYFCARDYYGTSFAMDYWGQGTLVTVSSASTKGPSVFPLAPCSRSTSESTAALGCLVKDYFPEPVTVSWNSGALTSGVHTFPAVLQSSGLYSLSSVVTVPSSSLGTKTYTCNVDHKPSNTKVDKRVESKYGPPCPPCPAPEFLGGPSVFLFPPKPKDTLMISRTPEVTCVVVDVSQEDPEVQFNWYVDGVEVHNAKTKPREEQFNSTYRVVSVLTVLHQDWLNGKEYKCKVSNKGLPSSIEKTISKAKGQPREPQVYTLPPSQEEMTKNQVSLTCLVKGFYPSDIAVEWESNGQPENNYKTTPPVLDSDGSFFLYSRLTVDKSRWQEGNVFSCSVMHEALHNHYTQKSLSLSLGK
light: B1 light with T5S
notes: also called AXON014-IgG4
B4: AX002-IgG4, humanized DC8E8 RHB/RKA, IgG4 isotype (antibody)
heavy: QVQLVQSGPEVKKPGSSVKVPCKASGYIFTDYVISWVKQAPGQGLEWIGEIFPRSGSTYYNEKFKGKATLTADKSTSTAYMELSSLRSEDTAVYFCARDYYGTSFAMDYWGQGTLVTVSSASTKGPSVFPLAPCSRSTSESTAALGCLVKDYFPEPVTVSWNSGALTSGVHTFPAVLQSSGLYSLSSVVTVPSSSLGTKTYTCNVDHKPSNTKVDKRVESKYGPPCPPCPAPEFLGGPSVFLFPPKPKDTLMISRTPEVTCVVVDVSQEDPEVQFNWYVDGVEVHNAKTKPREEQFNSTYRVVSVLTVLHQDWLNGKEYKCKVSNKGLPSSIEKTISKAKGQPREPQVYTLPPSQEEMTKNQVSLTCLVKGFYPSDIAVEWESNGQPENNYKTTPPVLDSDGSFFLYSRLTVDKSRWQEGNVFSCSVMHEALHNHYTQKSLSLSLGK
light: B1 light
notes: also called AXON002-IgG4
B5: AX028-IgG4, RHD heavy chain with chimeric DC8E8 kappa light chain, IgG4 isotype (antibody, V domains shown)
VH: QVQLVQSGAEVKKPGSSVKVSCKASGYTFSDYVISWVRQAPGQGLEWMGEIFPRSGSTYYNEKFKGRVTITADKSTSTAYMELSSLRSEDTAVYYCARDYYGTSFAMDYWGQGTLVTVSS
VL: DIVMSQSPSSLAVSAGEKVTMSCKSSQSLLNSRTRKNYLAWYQQKPGQSPKLLIYWASTRESGVPDRFTGSGSGTDFTLTISSVQAEDLAVYYCKQSFYLRTFGGGTKLDIKR
notes: also called AXON028-IgG4; RHD/VK
B6: AX026-IgG4, RHB heavy chain with chimeric DC8E8 kappa light chain, IgG4 isotype (antibody, V domains shown)
VH: B5 VH with A9P, S21P, T28I, S30T, R38K, M48I, R67K, V68A, I70L, Y95F
VL: B5 VL
notes: also called AXON026-IgG4; RHB/VK
B7: AX029-IgG4, RHE heavy chain with chimeric DC8E8 kappa light chain, IgG4 isotype (antibody, V domains shown)
VH: B5 VH with Y27G, T28I
VL: B5 VL
notes: also called AXON029-IgG4; RHE/VK
B8: AX017-IgG4, humanized DC8E8 RHE/RKB, IgG4 isotype (antibody)
heavy: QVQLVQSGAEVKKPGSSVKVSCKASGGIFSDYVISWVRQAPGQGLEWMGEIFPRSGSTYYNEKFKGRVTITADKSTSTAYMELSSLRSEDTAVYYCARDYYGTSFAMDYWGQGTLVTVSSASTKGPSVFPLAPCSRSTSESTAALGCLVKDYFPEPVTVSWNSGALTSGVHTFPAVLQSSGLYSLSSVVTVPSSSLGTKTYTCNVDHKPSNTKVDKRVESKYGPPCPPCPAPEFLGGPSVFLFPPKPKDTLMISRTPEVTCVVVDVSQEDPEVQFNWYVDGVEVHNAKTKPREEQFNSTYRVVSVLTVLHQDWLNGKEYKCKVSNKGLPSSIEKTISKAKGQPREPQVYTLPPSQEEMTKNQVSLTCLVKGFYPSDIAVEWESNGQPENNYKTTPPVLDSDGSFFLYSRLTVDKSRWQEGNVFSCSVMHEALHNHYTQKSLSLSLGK
light: B1 light with T5S
notes: Expressed in Expi293; also called AXON017-IgG4
B9: AX005-IgG1, humanized DC8E8 RHE/RKA, IgG1 isotype (antibody)
heavy: not shown
light: B1 light
notes: as for B1
B10: AX017-IgG1, humanized DC8E8 RHE/RKB, IgG1 isotype (antibody)
heavy: not shown
light: B1 light with T5S
notes: as for B1
B11: AX005-IgG4, humanized DC8E8 RHE/RKA, IgG4 isotype (antibody)
heavy: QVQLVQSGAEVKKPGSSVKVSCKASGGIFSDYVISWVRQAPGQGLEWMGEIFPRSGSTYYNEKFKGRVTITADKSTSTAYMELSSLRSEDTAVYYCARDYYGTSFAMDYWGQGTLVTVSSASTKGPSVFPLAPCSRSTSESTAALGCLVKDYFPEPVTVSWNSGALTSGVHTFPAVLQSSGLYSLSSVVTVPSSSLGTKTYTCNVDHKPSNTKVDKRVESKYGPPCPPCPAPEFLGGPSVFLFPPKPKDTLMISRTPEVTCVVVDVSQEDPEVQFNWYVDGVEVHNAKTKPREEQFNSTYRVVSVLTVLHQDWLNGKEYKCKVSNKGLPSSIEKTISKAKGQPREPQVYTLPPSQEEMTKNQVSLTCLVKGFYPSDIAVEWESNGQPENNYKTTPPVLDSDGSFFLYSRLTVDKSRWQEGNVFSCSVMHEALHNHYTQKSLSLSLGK
light: B1 light
notes: Expressed in Expi293; also called AXON005-IgG4

The target of one assay is T1, misdisordered truncated tau 151-391/4R (human, UniProt P10636 468-708). Briefly: cell-based or functional assay.
T1 sequence (P10636 468-708): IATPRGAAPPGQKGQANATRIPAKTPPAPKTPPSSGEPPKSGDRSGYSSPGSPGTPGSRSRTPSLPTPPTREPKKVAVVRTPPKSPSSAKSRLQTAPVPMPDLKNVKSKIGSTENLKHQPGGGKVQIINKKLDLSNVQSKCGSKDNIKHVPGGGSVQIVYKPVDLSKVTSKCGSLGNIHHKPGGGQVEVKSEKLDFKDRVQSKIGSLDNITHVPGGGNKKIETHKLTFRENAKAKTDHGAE
Turning to B1, the “amount of fibrillized pathological tau forms (Thioflavin T fluorescence), antibody at 10 uM” value is below 3%.
With B2, the “amount of fibrillized pathological tau forms (Thioflavin T fluorescence), antibody at 10 uM” value is below 3%.

For the next assay, the target named is T1, misdisordered truncated tau 151-391/4R. Briefly: binding ELISA of IgG4 versions, plate coated with Tau 151-391/4R. (An ELISA detects its analyte on a solid surface through an enzyme-linked reagent.)
Turning to B3, the binding result is on record as “binds”.
B4: the binding result is listed as “binds”.
For the molecule B5, the binding result is recorded as “binds”.
Same read-out and setting: in the case of B6 it was “binds”; in that of B7, “binds”.

The next assay concerns the target T2, tau peptide 352-380 (human).
T2 construct: Synthetic peptide (EZBiolabs), numbered on tau 2N4R
T2 peptide: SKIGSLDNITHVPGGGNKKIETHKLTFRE
Briefly: direct ELISA, tau peptide coated on plate.
In the case of B1, the binding result was “binds”.
As to B8, the binding result was “binds”.
The same measure, in the same setting: with B9 the entry was “binds”; with B10, “binds”; with B11, “binds”.
On the same count and under the same terms, with B2 the entry was “binds”.

Another assay addresses T3, tau peptide 314-342 (human).
T3 construct: Synthetic peptide (EZBiolabs), numbered on tau 2N4R
T3 peptide: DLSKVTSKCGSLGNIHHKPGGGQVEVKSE
Briefly: direct ELISA, tau peptide coated on plate.
For B1, the binding result is “binds”.
As to B8, the binding result is reported as “binds”.
The same measure, in the same setting: in the case of B9 it was “binds”; in that of B10, “binds”.
As for B11, the binding result was “binds”.
On to B2, for which the binding result was “binds”.

Another assay concerns the target T4, tau peptide 256-285 (human).
T4 construct: Synthetic peptide (EZBiolabs), numbered on tau 2N4R
T4 peptide: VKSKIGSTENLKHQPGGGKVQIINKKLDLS
Nature of the assay: direct ELISA, tau peptide coated on plate.
Turning to B1, the binding result is on record as “binds”.
As for B2, the binding result is “binds”.

A further assay addresses T5, tau peptide 282-311 (human).
T5 construct: Synthetic peptide (EZBiolabs), numbered on tau 2N4R; also called peptide derived from MTBRII
T5 peptide: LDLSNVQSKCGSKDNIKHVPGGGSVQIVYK
Nature of the assay: direct ELISA, tau peptide coated on plate.
Take B1: the binding result is given as “binds”.
Same read-out and setting: with B8 the entry was “binds”.
The same measure, in the same setting: in the case of B9 it was “binds”; in that of B10, “binds”; in that of B11, “binds”.
With B2, the binding result is “binds”.
